Reference: IntAct's records for PubMed 20927106

B1: Coronatine-insensitive protein 1 (Arabidopsis thaliana (Mouse-ear cress)), O04197 (parent)
chain: MEDPDIKRCKLSCVATVDDVIEQVMTYITDPKDRDSASLVCRRWFKIDSETREHVTMALCYTATPDRLSRRFPNLRSLKLKGKPRAAMFNLIPENWGGYVTPWVTEISNNLRQLKSVHFRRMIVSDLDLDRLAKARADDLETLKLDKCSGFTTDGLLSIVTHCRKIKTLLMEESSFSEKDGKWLHELAQHNTSLEVLNFYMTEFAKISPKDLETIARNCRSLVSVKVGDFEILELVGFFKAAANLEEFCGGSLNEDIGMPEKYMNLVFPRKLCRLGLSYMGPNEMPILFPFAAQIRKLDLLYALLETEDHCTLIQKCPNLEVLETRNVIGDRGLEVLAQYCKQLKRLRIERGADEQGMEDEEGLVSQRGLIALAQGCQELEYMAVYVSDITNESLESIGTYLKNLCDFRLVLLDREERITDLPLDNGVRSLLIGCKKLRRFAFYLRQGGLTDLGLSYIGQYSPNVRWMLLGYVGESDEGLMEFSRGCPNLQKLEMRGCCFSERAIAAAVTKLPSLRYLWVQGYRASMTGQDLMQMARPYWNIELIPSRRVPEVNQQGEIREMEHPAHILAYYSLAGQRTDCPTTVRVLKEPI
partner: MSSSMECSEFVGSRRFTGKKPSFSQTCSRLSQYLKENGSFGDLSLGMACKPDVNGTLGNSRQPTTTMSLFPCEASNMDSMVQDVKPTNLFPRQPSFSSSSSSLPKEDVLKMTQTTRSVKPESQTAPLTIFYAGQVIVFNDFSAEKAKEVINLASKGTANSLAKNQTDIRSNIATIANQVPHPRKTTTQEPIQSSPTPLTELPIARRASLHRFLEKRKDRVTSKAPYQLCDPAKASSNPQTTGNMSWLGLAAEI

Variants of: B1
Conditions: with ti10a_arath TIFY10A

| effect of a mutation on the interaction | Variant |
| --- | --- |
| disrupting interaction | L469A |
| disrupting interaction | L301A |
| disrupting interaction | R85A |
| disrupting interaction | M88A |
| disrupting interaction | R348A |
| disrupting interaction | Y386A |
| disrupting interaction | R121A |
| disrupting interaction | Y444A |
| disrupting interaction | R326A |
| disrupting interaction | R409A |
| disrupting interaction | F89A |
| disrupting interaction | Y302A |
| disrupting interaction | R351A |
| disrupting interaction | R496A |
